Measured values: patent US6570069B1, “Nucleic acids encoding plant inhibitors of apoptosis and transgenic cells and plants expressing them” (priority 2000, dated 2003)
“Also recorded” adds a separate entry of the source.

B2: GST-CpIAP (other)
chain: MSDLRLEEVRLNTFEKWPVSFLSPETMAKNGFYYLGRSDEVRCAFCKVEIMRWKEGEDPAADHKKWAPQCPFVKGIDVCGSIVTTNNIQNTTTHDTIIGPAHPKYAHEAARVKSFHNWPRCMKQRPEQMADAGFFYTGYGDNTKCFYCDGGLKDWEPEDVPWEQHVRWFDRCAYVQLVKGRDYVQKVITEACVLPGENTTVSTAAPVSEPIPETKIEKEPQVEDSKLCKICYVEECIVCFVPCGHVVACAKCALSVDKCPMCRKIVTSVLKVYFS
notes: range 1-275
B3: recombinant purified caspase-3 (enzyme, mammalian)
chain: SGISLDNSYKMDYPEMGLCIIINNKNFHKSTGMTSRSGTDVDAANLRETFRNLKYEVRNKNDLTREEIVELMRDVSKEDHSKRSSFVCVLLSHGEEGIIFGTNGPVDLKKITNFFRGDRCRSLTGKPKLFIIQACRGTELDCGIETDSGVDDDMACHKIPVEADFLYAYSTAPGYYSWRNSKDGSWFIQSLCAMLKQYADKLEFMHILTRVNRKVATEFESFSFDATFHAKKQIPCIVSMLTKELYFYHHHHHHH
notes: also called caspases-3

Key:
[1] = target: GST-SfIAP (Spodoptera frugiperda); experiment: cell-based or functional assay
SfIAP = experiment: Grim peptide effect on SfIAP-mediated suppression of caspases in cyto c-stimulated cell extracts; assay type: biochemical, Spodoptera frugiperda; conditions: cyto c-stimulated cytosol extracts
Experimental: (§1) Caspase activity was assayed by release of 7-amino-4-trifluoromethyl-coumarin (AFC) from Ac-DEVD or Ac-LEHD-containing synthetic peptides (Calbiochem) using continuous-reading instuments as described (Quan, L. T. et al., (1995) J. Biol. Chem. 270:10377-10379).
(§2) Cytosolic extracts were prepared as described (Deveraux, Q., Takahashi, R., Salvesen, G. S. & Reed, J. C. (1997) Nature 388, 300-303) using human embryonic kidney (HEK) 293 cells. Cells were washed with ice-cold buffer A (20 mM HEPES pH 7.5, 10 mM KCl, 1.5 mM MgCl2, 1 mM EDTA and 1 mM DTT), suspended in 1 volume of buffer A, incubated on ice for 20 mins, and then disrupted by 15 passages through a 26-gauge needle. Cell extracts were purified by centrifugation at 15000 g for 12 mins and supernatants were stored at −80 ° C. For initiating caspase activation, either 100 nM of purified recombinant caspase-8 or 1 μM horse heart cytochrome c (Sigma) together with 1 mM dATP was added to extracts (Deveraux, Q. L., et al., (1998) EMBO J. 17, 2215-2223).
It has been proposed that Drosophila apoptosis-inducers such as Grim function as negative regulators of IAPs (Deveraux, Q. & Reed, J. C. (1998) Genes Dev. 13, 239-252; Wang, S. et al. (1999) Cell 98, 453-463). […]

CpIAP = target: T1, CpIAP (Cydia pomonella granulosis virus, UniProt P41436); experiment: Grim peptide effect on CpIAP inhibition of mammalian caspases in vitro; assay type: biochemical, baculovirus
T1 construct: The complete ORF of CpIAP was subcloned into the EcoRI-EcoRV sites of pcDNA3-myc or the EcoRI-SalI sites in pGEX4T-1; GST (N); made in house; host or cells: E. coli BL21 (DE3) containing pT-Trx
T1 sequence (P41436 1-275): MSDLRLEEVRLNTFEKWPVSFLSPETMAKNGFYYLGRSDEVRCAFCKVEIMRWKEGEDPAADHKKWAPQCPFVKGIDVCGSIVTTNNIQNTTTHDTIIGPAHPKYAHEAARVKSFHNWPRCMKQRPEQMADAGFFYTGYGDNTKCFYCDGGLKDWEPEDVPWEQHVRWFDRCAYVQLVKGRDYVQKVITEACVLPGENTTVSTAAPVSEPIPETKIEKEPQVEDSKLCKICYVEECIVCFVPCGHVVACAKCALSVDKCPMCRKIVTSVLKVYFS

[2] = target: recombinant active caspase-9 (caspase-9 lacking the CARD domain) (mammalian), P55211; experiment: cell-based or functional assay
[3] = target: T2, recombinant purified caspase-7 (mammalian, UniProt P55210 24-303); experiment: in vitro binding with recombinant purified caspase; method not described
T2 construct: also called caspases-7
T2 sequence: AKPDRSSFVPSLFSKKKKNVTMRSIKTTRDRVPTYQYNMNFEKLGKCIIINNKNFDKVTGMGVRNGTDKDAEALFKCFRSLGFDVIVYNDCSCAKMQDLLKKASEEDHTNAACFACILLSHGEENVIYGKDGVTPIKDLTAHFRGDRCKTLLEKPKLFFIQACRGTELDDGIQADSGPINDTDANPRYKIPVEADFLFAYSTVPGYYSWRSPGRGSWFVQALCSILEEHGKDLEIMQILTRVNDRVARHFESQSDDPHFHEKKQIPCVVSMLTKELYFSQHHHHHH

[4] = target: B3; experiment: as above
GST-CpIAP = target: B2; experiment: as above
[35S]pro-caspase-9 = target: T3, [35S]pro-caspase-9 (mammalian, UniProt P55211 1-416, limits assumed); experiment: GST pull-down of in vitro-translated [35S]pro-caspase-9 on glutathione-Sepharose, SDS-PAGE and autoradiography
T3 construct: also called in vitro-translated pro-caspase-9
T3 sequence (looked up): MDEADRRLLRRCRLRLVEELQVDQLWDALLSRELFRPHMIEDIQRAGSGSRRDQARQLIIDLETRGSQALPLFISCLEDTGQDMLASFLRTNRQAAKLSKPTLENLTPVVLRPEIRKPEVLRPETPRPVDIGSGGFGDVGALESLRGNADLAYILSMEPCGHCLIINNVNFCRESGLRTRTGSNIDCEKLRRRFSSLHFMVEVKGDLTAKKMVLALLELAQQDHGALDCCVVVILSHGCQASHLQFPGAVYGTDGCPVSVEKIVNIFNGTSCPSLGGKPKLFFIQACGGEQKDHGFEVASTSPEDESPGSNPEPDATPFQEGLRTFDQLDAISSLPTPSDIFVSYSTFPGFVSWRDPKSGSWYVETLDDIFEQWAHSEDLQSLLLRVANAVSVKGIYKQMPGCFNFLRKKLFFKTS

pro-caspase-9 = target: T4, pro-caspase-9 (Homo sapiens, UniProt P55211); experiment: GST pull-down binding of [35S]-pro-caspase-9; design: species or system mammalian; conditions: GST fusion protein on glutathione-Sepharose
T4 construct: host or cells: cell-free in vitro transcription/translation
T4 sequence (P55211 1-416): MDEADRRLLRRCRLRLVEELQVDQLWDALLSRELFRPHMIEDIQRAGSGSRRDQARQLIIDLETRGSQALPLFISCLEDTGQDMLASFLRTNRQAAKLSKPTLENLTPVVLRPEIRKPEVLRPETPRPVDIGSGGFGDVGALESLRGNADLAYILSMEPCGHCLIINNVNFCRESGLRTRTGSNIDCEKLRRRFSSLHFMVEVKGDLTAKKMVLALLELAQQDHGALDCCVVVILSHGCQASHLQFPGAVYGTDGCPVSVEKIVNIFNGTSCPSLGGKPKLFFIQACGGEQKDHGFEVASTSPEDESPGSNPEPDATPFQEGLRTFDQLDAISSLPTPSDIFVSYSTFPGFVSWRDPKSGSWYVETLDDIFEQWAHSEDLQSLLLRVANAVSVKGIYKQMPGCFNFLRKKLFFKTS
Experimental: [^35S]Pro-caspase-9 was in vitro transcribed and translated in the presence of [^35S]L-methionine using TNT kit from Promega. Protein were desalted and exchanged into buffer (20 mM HEPES pH 7.5, 10 mM KCl, 1.5 mM MgCl2, 1 mM EDTA and 1 mM DTT) with Bio-spin P-6 columns (Bio-Rad). […] After incubation at 4 ° C. for 1 hour, beads were removed by centrifugation and washed twice with 0.5 ml of 50 mM Tris (pH 7.5), 150 mM NaCl, 2 mm DTT before analysis by SDS-PAGE and autoradiography.

[5] = test system: caspase-3 and similar DEVD-cleaving proteases in cell extracts treated with cyto c; experiment: Cell-free caspase activation induced by cyto c in HEK 293 cytosolic extracts; assay type: biochemical, human; conditions: recombinant protein, cell extracts treated with cyto c
Experimental: as §1, §2
To further explore the mechanisms by which SfIAP and CpIAP inhibit mammalian apoptosis, a cell-free system in which exogenously added active caspase-8 or cyto c induces activation of caspase-3 and similar proteases, as measured by hydrolysis of Ac-DEVD-AFC (Quan, L. T. et al., (1995) J. Biol. Chem. 270, 10377-10379) was used. Caspase-8 and cyto c trigger the same apoptosis pathways in extracts which are activated by Fas and Bax in intact cells.

Work on “Grim peptide (IAP-binding domain of Grim, first 18 amino acids) (from UniProt Q24570 1-18)” yielded a restoration of DEVD-cleaving caspase activity in cyto c-stimulated cell extracts suppressed by SfIAP [1] of 5 fold excess.

With “Grim peptide: peptide corresponding to the IAP-binding domain of Grim (first 18 amino acid of Grim) (MAIAYFIPDQAQLLARSY; UniProt Q24570 1-18, looked up, fragment)” the “effect on SfIAP inhibition of cyto c-induced activation of DEVD-cleaving caspases” value (SfIAP) was “abrogated this inhibitory effect of SfIAP in a concentration-dependent manner; also recorded: negate the ability of SfIAP and CpIAP to inhibit mammalian caspases”, the “excess of peptide relative to SfIAP resulting in complete restoration of caspase activity” value (SfIAP) was 5 fold and the “effect on ability of CpIAP to inhibit mammalian caspases” value (CpIAP) was “negate the ability of SfIAP and CpIAP to inhibit mammalian caspases”.

B1: GST-SfIAP (other, not shown: a dimerising Fc or GST)
chain: MWSCSLPCWNTKKSGLQMDITKVASNGSSSTLTLFKSGSLEAKIRPLAPLMLPTPSYDSNAGSPSLSPSTPCSSSSFSIDKTDNHDTFGFSADTVDMRKEDERMKTFEKWPVSFLSGEQLARNGFYYLGRRDEARCAFCKVEIMRWVEGDDPAKDHQRWAPQCPFVRKLNGTAAADTGSSGQDECGARAAPSGTSPPRMAGPVHPRYASEAARLRSFKDWPRCMRQKPEELAEAGFFYTGQGDKTKCFYCDGGLKDWENHDVPWEQHARWFDRCAYVQLVKGREYVQKVISEACEVSASEAERDVAPARTAEPSPPAEAPENSVDDSKLCKICYAEERNVCFVPCGHVVACAKCALAADKCPMCRRTFQNAVRLYFS
notes: also called recombinant SfIAP; recombinant-purified SfIAP
With B1 the molar-excess relative to caspase-9 which produced ~50% inhibition of protease activity (Ac-LEHD-AFC substrate) (fold molar excess) [2] was 8, the binding result [3] was “no binding” and the binding result [4] was “no binding”.

B2: no binding [3].

B3: no binding (GST-CpIAP).

B4: GST-XIAP-BIR1 (other, human, UniProt P98170 1-123, looked up, not shown: a dimerising Fc or GST)
chain: MTFNSFEGSKTCVPADINKEEEFVEEFNRLKTFANFPSGSPVSASTLARAGFLYTGEGDTVRCFSCHAAVDRWQYGDSAVGRHRKVSPNCRFINGFYLENSATQSTNSGIQNGQYKVENYLGS
notes: domain: BIR1; also called BIR1 domain of XIAP
B4: no binding ([35S]pro-caspase-9).

B5: XIAP-BIR1: control protein consisting of the BIR1 domain of XIAP (protein)
chain: MTFNSFEGSKTCVPADINKEEEFVEEFNRLKTFANFPSGSPVSASTLARAGFLYTGEGDTVRCFSCHAAVDRWQYGDSAVGRHRKVSPNCRFINGFYLENSATQSTNSGIQNGQYKVENYLGS
modifications: left off: a dimerising Fc or GST
B5 was tested, and the “binding to pro-caspase-9 (autoradiography)” value (pro-caspase-9) was “failed to bind caspase-9” and the “effect on hydrolysis of Ac-DEVD-AFC (caspase activity)” value [5] was “did not interfere with caspase activity”.
